From article PMC10450186

What was measured:
[1] = target: T1, RPA heterotrimer WT (RPA70/RPA32/RPA14) (human, UniProt P27694;P15927;P35244 1-616;1-270;1-121); test: EMSA; two shifted bands up to 150 nM RPA; EMSA: 50 mM Tris-HCl pH 7.5, 50 mM NaCl, 1 mM DTT, 0.01% Tween-20, 23°C, 10 nM labeled DNA; NSMF-DNA gels 1.5% agarose in 1xTBE at 4°C; settings: protein: recombinant; tags: untagged; 7xHis version also made; copies: 1;1;1; label: 5' Cy5
[2] = target: T2, pmRPA-S33D (human, UniProt P27694;P15927;P35244 1-616;1-270;1-121, S33D;RPA32); test: EMSA; one shifted band; EMSA: 50 mM Tris-HCl pH 7.5, 50 mM NaCl, 1 mM DTT, 0.01% Tween-20, 23°C, 10 nM labeled DNA; NSMF-DNA gels 1.5% agarose in 1xTBE at 4°C; settings: protein: recombinant; tags: 7xHis; copies: 1;1;1; label: 5' Cy5
T2 sequence (P27694 whole entry, stated change not applied, chain 1 of 3): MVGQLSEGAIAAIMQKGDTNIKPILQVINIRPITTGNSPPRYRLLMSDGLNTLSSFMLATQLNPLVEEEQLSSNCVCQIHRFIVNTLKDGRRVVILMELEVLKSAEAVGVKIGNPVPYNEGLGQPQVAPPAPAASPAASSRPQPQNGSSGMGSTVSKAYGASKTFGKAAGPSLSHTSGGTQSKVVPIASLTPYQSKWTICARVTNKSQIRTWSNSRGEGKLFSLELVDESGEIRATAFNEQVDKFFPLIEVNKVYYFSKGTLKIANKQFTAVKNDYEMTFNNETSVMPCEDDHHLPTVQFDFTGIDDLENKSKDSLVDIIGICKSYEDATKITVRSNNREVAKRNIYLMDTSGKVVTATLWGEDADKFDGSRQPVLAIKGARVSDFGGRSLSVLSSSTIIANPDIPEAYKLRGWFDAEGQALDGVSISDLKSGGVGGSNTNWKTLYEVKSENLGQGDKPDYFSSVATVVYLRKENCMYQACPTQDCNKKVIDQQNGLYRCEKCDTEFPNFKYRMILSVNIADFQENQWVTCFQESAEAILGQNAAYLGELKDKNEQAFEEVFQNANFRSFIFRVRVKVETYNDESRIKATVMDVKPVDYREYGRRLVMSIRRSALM
T2 sequence (P15927 whole entry S33D, chain 2 of 3): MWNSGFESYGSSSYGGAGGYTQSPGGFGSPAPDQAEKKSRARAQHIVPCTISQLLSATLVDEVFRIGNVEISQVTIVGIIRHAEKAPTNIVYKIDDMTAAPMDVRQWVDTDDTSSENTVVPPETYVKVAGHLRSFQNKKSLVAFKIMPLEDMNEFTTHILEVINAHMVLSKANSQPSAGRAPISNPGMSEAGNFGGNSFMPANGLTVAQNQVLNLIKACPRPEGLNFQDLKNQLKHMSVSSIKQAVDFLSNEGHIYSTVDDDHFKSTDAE
T2 sequence (P35244 whole entry, stated change not applied, chain 3 of 3): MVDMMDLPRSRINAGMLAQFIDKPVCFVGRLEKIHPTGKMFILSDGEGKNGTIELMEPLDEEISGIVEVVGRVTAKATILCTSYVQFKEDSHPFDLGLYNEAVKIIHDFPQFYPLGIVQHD

[3] = target: DBM-RPA (human, UniProt P27694;P15927;P35244 1-616;1-270;1-121, W107A;F135A;RPA32); test: EMSA; 25 nM; single molecule bound; EMSA: 50 mM Tris-HCl pH 7.5, 50 mM NaCl, 1 mM DTT, 0.01% Tween-20, 23°C, 10 nM labeled DNA; NSMF-DNA gels 1.5% agarose in 1xTBE at 4°C; settings: protein: recombinant; copies: 1;1;1; label: 5' Cy5
Sequence of DBM-RPA (P27694 whole entry, stated change not applied, chain 1 of 3): as the sequence (P27694 whole entry, stated change not applied, chain 1 of 3) above
Sequence of DBM-RPA (P15927 whole entry W107A/F135A, chain 2 of 3): as the sequence (P15927 whole entry S33D, chain 2 of 3) above, with D33S, W107A, F135A counted along it
Sequence of DBM-RPA (P35244 whole entry, stated change not applied, chain 3 of 3): as the sequence (P35244 whole entry, stated change not applied, chain 3 of 3) above

[4] = target: T3, NSMF WT (UniProt Q6X4W1 1-530); test: EMSA; low affinity; EMSA: 50 mM Tris-HCl pH 7.5, 50 mM NaCl, 1 mM DTT, 0.01% Tween-20, 23°C, 10 nM labeled DNA; NSMF-DNA gels 1.5% agarose in 1xTBE at 4°C; settings: protein: recombinant, tags: N-term 3xFLAG, C-term 10xHis (MBP cleaved)
T3 sequence: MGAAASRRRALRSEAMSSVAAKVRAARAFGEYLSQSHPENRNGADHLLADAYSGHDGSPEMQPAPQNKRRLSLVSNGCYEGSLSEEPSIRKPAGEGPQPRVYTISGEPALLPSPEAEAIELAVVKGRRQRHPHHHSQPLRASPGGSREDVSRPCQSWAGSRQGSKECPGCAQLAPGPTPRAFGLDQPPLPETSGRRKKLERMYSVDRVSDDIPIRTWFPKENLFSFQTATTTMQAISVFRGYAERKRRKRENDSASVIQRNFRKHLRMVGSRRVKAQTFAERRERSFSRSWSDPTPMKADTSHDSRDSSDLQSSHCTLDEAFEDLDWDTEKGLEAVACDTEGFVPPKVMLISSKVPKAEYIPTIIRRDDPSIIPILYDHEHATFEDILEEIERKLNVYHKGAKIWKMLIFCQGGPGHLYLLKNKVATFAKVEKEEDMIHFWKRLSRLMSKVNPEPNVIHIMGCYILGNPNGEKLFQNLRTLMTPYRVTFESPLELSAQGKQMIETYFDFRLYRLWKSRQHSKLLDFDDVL

[5] = target: T4, RPA-eGFP heterotrimer (human, UniProt P27694;P15927;P35244 1-616;1-270;1-121); test: single-molecule photobleaching; two steps predominant; EMSA: 50 mM Tris-HCl pH 7.5, 50 mM NaCl, 1 mM DTT, 0.01% Tween-20, 23°C, 10 nM labeled DNA; NSMF-DNA gels 1.5% agarose in 1xTBE at 4°C; settings: protein: recombinant; tags: 6xHis; eGFP at C-term of RPA70; copies: 1;1;1; label: 5' biotin
T4 sequence (P27694 whole entry, chain 1 of 3): as the sequence (P27694 whole entry, stated change not applied, chain 1 of 3) above
T4 sequence (P15927 whole entry, chain 2 of 3): as the sequence (P15927 whole entry S33D, chain 2 of 3) above, with D33S counted along it
T4 sequence (P35244 whole entry, chain 3 of 3): as the sequence (P35244 whole entry, stated change not applied, chain 3 of 3) above

[6] = target: T1, RPA heterotrimer WT (RPA70/RPA32/RPA14); test: EMSA; single shifted band; EMSA: 50 mM Tris-HCl pH 7.5, 50 mM NaCl, 1 mM DTT, 0.01% Tween-20, 23°C, 10 nM labeled DNA; NSMF-DNA gels 1.5% agarose in 1xTBE at 4°C; settings: protein: recombinant; tags: untagged; 7xHis version also made; copies: 1;1;1; label: 5' Cy5
[7] = target: T2, pmRPA-S33D; test: EMSA; two shifted bands; EMSA: 50 mM Tris-HCl pH 7.5, 50 mM NaCl, 1 mM DTT, 0.01% Tween-20, 23°C, 10 nM labeled DNA; NSMF-DNA gels 1.5% agarose in 1xTBE at 4°C; settings: protein: recombinant; tags: 7xHis; copies: 1;1;1; label: 5' Cy5
[8] = target: T1, RPA heterotrimer WT (RPA70/RPA32/RPA14); test: EMSA; three shifted bands; EMSA: 50 mM Tris-HCl pH 7.5, 50 mM NaCl, 1 mM DTT, 0.01% Tween-20, 23°C, 10 nM labeled DNA; NSMF-DNA gels 1.5% agarose in 1xTBE at 4°C; settings: protein: recombinant; tags: untagged; 7xHis version also made; copies: 1;1;1; label: 5' Cy5
[9] = target: T4, RPA-eGFP heterotrimer; test: single-molecule photobleaching; three steps predominant; EMSA: 50 mM Tris-HCl pH 7.5, 50 mM NaCl, 1 mM DTT, 0.01% Tween-20, 23°C, 10 nM labeled DNA; NSMF-DNA gels 1.5% agarose in 1xTBE at 4°C; settings: protein: recombinant; tags: 6xHis; eGFP at C-term of RPA70; copies: 1;1;1; label: 5' biotin
[10] = target: T4, RPA-eGFP heterotrimer; test: single-molecule fluorescence; EMSA: 50 mM Tris-HCl pH 7.5, 50 mM NaCl, 1 mM DTT, 0.01% Tween-20, 23°C, 10 nM labeled DNA; NSMF-DNA gels 1.5% agarose in 1xTBE at 4°C; settings: protein: recombinant; tags: 6xHis; eGFP at C-term of RPA70; copies: 1;1;1; label: 5' biotin
[11] = target: T3, NSMF WT; test: EMSA; up to 3000 nM NSMF; EMSA: 50 mM Tris-HCl pH 7.5, 50 mM NaCl, 1 mM DTT, 0.01% Tween-20, 23°C, 10 nM labeled DNA; NSMF-DNA gels 1.5% agarose in 1xTBE at 4°C; settings: protein: recombinant; tags: N-term 3xFLAG, C-term 10xHis (MBP cleaved); label: Cy3 on Oligo1, Cy5 on RNA oligo; bubble 1:2, RNA strand 3 paired to strand 2 in bubble

T1 sequence (P27694 whole entry, chain 1 of 3): as the sequence (P27694 whole entry, stated change not applied, chain 1 of 3) above
T1 sequence (P15927 whole entry, chain 2 of 3): as the sequence (P15927 whole entry S33D, chain 2 of 3) above, with D33S counted along it
T1 sequence (P35244 whole entry, chain 3 of 3): as the sequence (P35244 whole entry, stated change not applied, chain 3 of 3) above

Does TTTTTTTTTTTTTTTTTTTTTTTTTTTTTT (ssDNA) [30-nt ssDNA (dT30)] bind [1]?
Result: binds

Does TTTTTTTTTTTTTTTTTTTTTTTTTTTTTT (ssDNA) [30-nt ssDNA (dT30)] bind [2]?
Result: binds

Does TTTTTTTTTTTTTTTTTTTTTTTTTTTTTT (ssDNA) [30-nt ssDNA (dT30)] bind [3]?
Result: binds

B1: PTJ (primer-template junction) (mixed)
DNA 1: TGGCGACGGCAGCGAGGCAGGTCAGGAATTCTGATC
DNA 2: GATCAGAATTCCTGACCT
Does B1 bind ([4]; 18 bp duplex, 5' overhang 18 nt on strand 1)?
Result: binds

Does TTTTTTTTTTTTTTTTTTTTTTTTTTTTTT (ssDNA) [Biotinylated 30-nt ssDNA] bind [5]?
Result: binds

Does TTTTTTTTTTTTTT (ssDNA) [14-nt ssDNA (dT14)] bind [6]?
Result: binds

B2: 60-nt ssDNA (ssDNA)
DNA: TATTCATTGTTTTACCTATTGTACCTTATTCTTAATTCATTTTACTAATCATTTACGAGT
Does B2 bind [7]?
Result: binds

Does B2 bind [8]?
Result: binds

B3: Biotinylated 60-nt ssDNA (ssDNA)
DNA: B2 DNA
Does B3 bind [9]?
Result: binds

Does TTTTTTTTTTTTTT (ssDNA) [Biotinylated 14-nt ssDNA] bind [10]?
Result: binds

B4: R-loop (mixed)
DNA 1: GCCAGGGACGAGGTGAACCTGCAGGTGGGCGGCTACTACTTAGATGTCATCCGAGGCTTATTGGTAGAATTCGGCAGCGTCATGCGACGGC
DNA 2: GCCGTCGCATGACGCTGCCGAATTCTACCACGCGATTCATACCTGTCGTGCCAGCTGCTTTGCCCACCTGCAGGTTCACCTCGTCCCTGGC
RNA: GCAGCUGGCACGACAGGUAUGAAUC
Does B4 bind [11]?
Result: no binding

B5: Fork (Y-shape) (mixed)
DNA 1: GCCAGGGACGAGGTGAACCTGCAGGTGGGCGGCTACTACTTTTTTTTTTTTTTTTTTTTTTTTTTTTTTTTTTTTTTTT
DNA 2: TTTTTTTTTTTTTTTTTTTTTTTTTTTTTTTTTTTTTTTAGTAGTAGCCGCCCACCTGCAGGTTCACCTCGTCCCTGGC
Does B5 bind ([4]; label: 5' Cy5 on strand 1, fork 1:2, two poly-dT arms)?
Result: binds
